± gives the uncertainty stated by the source.
Assay: amyloid nucleation score (Sup35N fusion, yeast selection) (log enrichment); library NNK2; higher = more nucleation; inactive = no reads after selection
In short: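 Output and input plasmid inserts were sequenced by Illumina after psi-negative yeast carrying Sup35N fused to peptides of 20 random codons had been induced 24 hours with 100 μM copper sulfate and grown 7 days at 30°C on medium lacking adenine and uracil. The nucleation score is the DiMSum log enrichment of output over input reads, centred on the mode score of non-aggregating sequences. Sequences with under 100 input reads were excluded.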

Row | Substance | amyloid nucleation score
1 | LRLGHVIPGVKNCREEND | -0.745 ± 0.3
2 | LRLSSGLKSVRTRRRM | 0.904 ± 0.37
3 | LRLVYISTMIQMPFGRRVF | 3.73 ± 0.04
4 | LRPLVL | -0.686 ± 1.1
5 | LRQRY | -0.233 ± 0.64
6 | LRSVKMIRCLNSSLPLNGRG | 0.735 ± 0.12
7 | LRSYWSGIGTTGPV | 4.57 ± 0.1
8 | LRTQSILYLRRMG | -0.164 ± 0.32
9 | LRVCNFCTFHFVWWS | 4.8 ± 0.06
10 | LRVHESAGSNLVVWIKIVLE | 3.42 ± 0.14
11 | LRWVKKRTAAQN | -0.023 ± 0.63
12 | LRYLGWLACDYKTVGRSVTR | 0.978 ± 0.74
13 | LRYRDASEALSYLCMQYDVI | 2.94 ± 0.05
14 | LSDYLPISSWFSLCTEFLAT | -1.02 ± 1.1
15 | LSEGCSLSTSVSMT | -0.392 ± 0.44
16 | LSFIFL | 4.256 ± 0.031
17 | LSFSNPWFMIKSRDMFVCIG | 0.792 ± 0.8
18 | LSGAPRLILRVNLWDTFDVQ | 4 ± 0.046
19 | LSGVGFLDFRPLN | 0.734 ± 0.81
20 | LSHLFSV | -0.381 ± 1.1
21 | LSHMLDLRGNNKSFWCYVEG | 0.89 ± 0.44
22 | LSKPDLRTGSDDMS | -0.297 ± 0.79
23 | LSLYIGFYMKGGSCRC | 0.007 ± 0.79
24 | LSNCNRMLAGQGGGSRSDWR | 0.907 ± 0.37
25 | LSNKRKVSSLLM | inactive

Row | Substance | amyloid nucleation score
26 | LSNLGTNYR | inactive
27 | LSQVSRFLSSTNLT | 0.579 ± 0.47
28 | LSSGLLSLFALKQCF | -0.669 ± 0.54
29 | LSSHPLGLGHTMGHRKF | 0.985 ± 0.48
30 | LSSTFLNFA | inactive
31 | LSWVRAIS | 0.2 ± 0.38
32 | LSWYDLSVQWNLYNIVGRRV | 2.06 ± 0.078
33 | LTFNLLSTLTFVRVLVPPLA | 0.803 ± 0.34
34 | LTGCGDFSLLSIYFSRMHRG | 5.2 ± 0.078
35 | LTGFLNGAGNN | 1.75 ± 0.12
36 | LTGTMVMIVNPLDCVLGVER | 5.01 ± 0.085
37 | LTLAS | 0.49 ± 0.25
38 | LTNCRIVLSLNQARVRIESI | 0.218 ± 0.8
39 | LTNKLELNLGASIADSVGNN | -0.89 ± 0.49
40 | LTPIPFYNPDNISYYNAFPS | inactive
41 | LTVLFLYLSLRCHSYNPAHA | -0.841 ± 1.1
42 | LTVRDLVPPPAMANRFLTVI | -0.016 ± 0.44
43 | LTYLFVQSSVAWLSLMIH | 0.253 ± 0.6
44 | LVCSCIGHVHGVTH | 7.125 ± 0.067
45 | LVDRPGFSVNVD | -0.191 ± 0.35
46 | LVHCLSPRIVATGVPHGMMV | 1.04 ± 0.35
47 | LVKGRAAERCNFLSWVKSVQ | -0.533 ± 0.3
48 | LVKVHSISMLINSYLGEFCL | 0.045 ± 0.79
49 | LVLLVPGKLMCF | 4.12 ± 0.081
50 | LVLSGGRV | 0.184 ± 0.42

Row | Substance | amyloid nucleation score
51 | LVLYGNVA | 0.28 ± 0.74
52 | LVMVCMVSFENHYMLGTEVL | 2.71 ± 0.14
53 | LVNDHGVSVVSCGTD | 0.053 ± 0.79
54 | LVQRWGWSKPLIAGI | -0.271 ± 0.49
55 | LVRMPRGTSFGRCNVCV | inactive
56 | LVRNPAQMSFRPIVHSVCYL | 0.724 ± 0.16
57 | LVSFGVYMLSSVRKECHSLN | 0.536 ± 0.49
58 | LVSNHASYFIQI | 7.467 ± 0.035
59 | LVTVSVVPSWSAVRPTGMNV | 0.84 ± 0.46
60 | LVYDKENIGRLDRRRVWRRQ | 0.767 ± 0.74
61 | LVYVT | 0.434 ± 0.37
62 | LWFKCGHSIQGLVRVTESGS | -0.15 ± 0.27
63 | LWFLVFMDMVRRWRGNHRGE | -0.656 ± 1.1
64 | LWHESC | -0.119 ± 0.33
65 | LWITVRATPRLDRS | 1.03 ± 0.21
66 | LWLKEVYRWMIGGTRYL | -0.618 ± 0.76
67 | LWLVSKAYRYLPYSDWKSAL | 0.161 ± 0.77
68 | LWMDWS | 0.754 ± 0.36
69 | LWVLTSRDDVFMVVFFMTPK | -0.483 ± 0.5
70 | LYCSSLFKVYRGVQTRAKLR | inactive
71 | LYDMTCRSSVKGNV | -1.19 ± 0.75
72 | LYENWPCFT | -0.199 ± 0.53
73 | LYEYHHGFVCQRVCGAIVGR | 1.23 ± 0.43
74 | LYFMCNFLTCSL | 7.893 ± 0.057
75 | LYFSNPWFMIKSRDMFVCIG | 0.51 ± 0.18

Row | Substance | amyloid nucleation score
76 | LYFSSTYCLLVGKTDQIDCH | inactive
77 | LYGNYDTSYTLIQVISLRNG | 6.202 ± 0.04
78 | LYHDEALVWNLRDVSRIYRL | 3.59 ± 0.1
79 | LYKSSQKKPQTLNDFQIAMW | 0.193 ± 0.65
80 | LYLYSWRCNPISP | inactive
81 | LYPCYYCRAEKVHVRLDFTR | -0.517 ± 0.23
82 | LYREDGNMSDH | 1.82 ± 0.28
83 | LYSCWVSCLEGRLVCGPLTH | -0.65 ± 0.39
84 | LYSDGVIDMRRLCKVL | -0.841 ± 0.62
85 | LYTFGFSFLWKYSRFHV | inactive
86 | LYVLVLMVCYRYGGKF | 4.38 ± 0.063
87 | LYVVIIPSEAIHVTKSSHGI | inactive
88 | LYVYGGSLNPGLVMFVPCWK | -0.774 ± 0.76
89 | LYVYMCIPLDYLSSRVDSKR | 5.67 ± 0.094
90 | LYWSLCDFCN | inactive
91 | MACKGLSLCFVWVLENKRRS | 0.454 ± 0.23
92 | MACTFHVLTMGRFWSAWHRM | 0.598 ± 0.29
93 | MAGWLLNINLLMPIVGDVLQ | 8.131 ± 0.056
94 | MAMVLWLECTS | 0.924 ± 0.47
95 | MASSPSVSIIKLFFGVEGLS | -0.681 ± 1
96 | MASVMLQCHGCPLGKGTARA | 0.879 ± 0.41
97 | MAYGGPFSVLSSWDDADNGY | -0.05 ± 0.5
98 | MCGNWLD | 3.05 ± 0.055
99 | MCPLT | 0.638 ± 0.17
100 | MCTDFQC | 0.475 ± 0.27

Row | Substance | amyloid nucleation score
101 | MCVYCVDYWGACRLEILALW | -0.423 ± 0.41
102 | MDCECG | 1.03 ± 0.3
103 | MDFGVLARSNLYIIYYLCLR | inactive
104 | MDLLPNSGYGLRSDLRVLAE | 3.5 ± 0.097
105 | MDLVSSFRLNVCGT | 0.089 ± 0.5
106 | MDNHVLKFYRNDYKE | 0.191 ± 0.65
107 | MDWIPLMPTYGIWLPC | 0.045 ± 0.41
108 | MEDHF | 3.69 ± 0.11
109 | MELRFDCF | 0.089 ± 1.1
110 | MEPYRVKAMYPPRVIKVWFT | -0.448 ± 0.76
111 | MERIPVVSDMGRLGFSACRL | 0.821 ± 0.23
112 | MFERINALFNLQ | 3.46 ± 0.14
113 | MFFFYKFMKDKIGN | 4.37 ± 0.051
114 | MFFNLAI | inactive
115 | MFKQFVSLLHQGLFLSLSFD | -0.01 ± 0.6
116 | MFLFGASLRIIRVVLTYELL | inactive
117 | MFLNPQPVFDLISFNVVSTP | 9.306 ± 0.032
118 | MFNACDNRKFCVGVCSDLK | 0.036 ± 0.41
119 | MFSIYSGYIVKQC | 0.336 ± 0.74
120 | MFSMGEAAAL | 0.305 ± 0.3
121 | MFVGGGSSSTWLGNVWYVGS | -0.337 ± 1.1
122 | MFVGSGRDCTVTVPFRQPTG | 1.86 ± 0.29
123 | MFVWVQSRIGKGFGMGFRRW | -0.307 ± 0.76
124 | MGCCIYCYSRIDHL | 8.743 ± 0.055
125 | MGDSTIEVTLPVG | 0.987 ± 0.39

Row | Substance | amyloid nucleation score
126 | MHRLPNNIPTGNQLPLQPSE | -0.41 ± 0.48
127 | MIASIGLDCEHVM | 0.841 ± 0.5
128 | MICHMFMG | inactive
129 | MIDWGVIV | -0.149 ± 0.76
130 | MIGDYTSFCMGSGF | inactive
131 | MIICLEVKTGYST | 3.73 ± 0.068
132 | MILEVSDWLGVVCVIKVWLT | 0.561 ± 0.41
133 | MILNQMYDKFYSRLSSITSR | 1.31 ± 0.66
134 | MIQRFVISSGYRGFYLTLLI | inactive
135 | MISVVRKPPLIISVIRSRWD | 0.687 ± 0.47
136 | MITDGGASVGLNYRYS | -0.524 ± 0.33
137 | MKIYARIMSFLWATVKCVGY | inactive
138 | MKRLPDSDIMVVPIVHKINL | inactive
139 | MKSLLLLCCYSELAYLCGML | -1.34 ± 0.4
140 | MLDGTSCICVVIEA | -0.035 ± 0.21
141 | MLGCCPRVSVVPNTV | -0.467 ± 0.45
142 | MLIDSWSVAIYICLLLIQVQ | 1.34 ± 0.13
143 | MLKSYDKKWWGTMAWSNSSV | 0.711 ± 0.34
144 | MLKWWLFTRSSSPGRHCRLD | -0.471 ± 0.54
145 | MLLIIVWQILMKLNGWITVL | inactive
146 | MLLPLNYECGVQYS | -0.179 ± 0.37
147 | MLLRHNEPVLLRAHYYRESA | -0.13 ± 0.76
148 | MLLYNESNANQLKRGSGRWL | 0.156 ± 0.32
149 | MLVDVLGC | inactive
150 | MMFNYVFASLGFKRNVHLEC | inactive

Row | Substance | amyloid nucleation score
151 | MMGWFPRKLES | -0.125 ± 0.41
152 | MMVAGLFLGAFFLISTKGVK | 4.43 ± 0.064
153 | MMVRN | 1.22 ± 0.57
154 | MMYISSGVFWTE | inactive
155 | MNEFCRTGCRTFRQRSSCCR | 0.868 ± 0.15
156 | MNYLCASSGVLVKN | -0.055 ± 1.1
157 | MPCLFVF | 2.28 ± 0.17
158 | MPEIREREMYGLVESLEYKK | -0.147 ± 0.41
159 | MPHLVVTNAPGVSIRVGSDW | -0.888 ± 0.78
160 | MPLCECHNKGHVDFCDTRTA | -0.072 ± 1.1
161 | MPWFIQMVHLCWFPEGRTRF | 4.85 ± 0.071
162 | MRFNDTENWGVSDVISSNDF | inactive
163 | MRFRLCNYLLRRVWDLNRGA | -1.18 ± 0.39
164 | MRLTTGINF | -1.14 ± 0.76
165 | MRLVSSDDFCV | 0.097 ± 0.8
166 | MRVDLKLVSAYLKSRFGPMF | -0.341 ± 0.79
167 | MRWIFGHAGPSFSCILKKRP | inactive
168 | MSFNGCFDRMRREDRYEI | 0.16 ± 0.65
169 | MSGWVAGLHLDVCGVDYAGG | 1.9 ± 0.29
170 | MSKEVVSSGYVIHIRRQRGG | 0.82 ± 0.57
171 | MSKGVYIYNIYYLVMSGVPL | 4.9 ± 0.063
172 | MSLCGYNYI | inactive
173 | MSLVSRNSTSKHLNIVFSLI | 5.057 ± 0.045

Reference: the supplement of paper PMC12042874
